From patent publication US20250019443A1 (DUKE UNIVERSITY, published 2025)
Like-named read-outs stand apart in the source and are kept apart here.

Tests used:
[1] = target: HLA-E-RL9SIV single chain trimer on transfected 293T cells (human, UniProt P61769 21-119; P13747 22-358); test: flow cytometry, SCT-transfected 293T cells, MFI bar chart [panel E]
[2] = target: T1, RL9HIV (peptide pulsed K562-HLA-E cells) (human); test: flow cytometry on peptide-pulsed K562-HLA-E cells; AF647 anti-mouse Ig(H+L)
T1 construct: cell surface

[3] = target: T2, RL9 SIV (peptide pulsed K562-HLA-E cells) (human); test: as above
T2 construct: cell surface

[4] = target: T3, Mtb44 (peptide pulsed K562-HLA-E cells) (human); test: as above
T3 construct: cell surface

[5] = target: T4, soluble HLA-E-VL9 complex (HLA-E*01:03, β2M, VL9 peptide) (human)
[6] = target: T4, soluble HLA-E-VL9 complex (HLA-E*01:03, …); remark: listed apart in the source
[7] = target: T4, soluble HLA-E-VL9 complex (HLA-E*01:03, …); remark: listed apart in the source
[8] = target: HLA-E-RL9HIV with a mutation at P1 (arginine to valine) on transfected 293T cells (human, UniProt P61769 21-119; P13747 22-358); test: flow cytometry on transfected HEK 293T cells
[9] = target: T4, soluble HLA-E-VL9 complex (HLA-E*01:03, …); remark: listed apart in the source

B1: CA172 (antibody, V domains shown)
VH: QVQLVESGGGLVKPGGSLRLSCAASGFTFSDYYMSWIRQAPGKGLEWVSYISSSSSYTNYADSVKGRFTISRDNAKNSLYLQMNSLRAEDTAVYYCARALRYFDWYDYWGQGTLVTVSS
VL: EIVLTQSPDFQSVTPKGKVTITCRASQSIGSSLHWYQQKPDQSPKLLIKYASQSFSGVPSRFSGSGSGTEFTLTISSLQPEDFATYYCQQLNSYSPITFGQGTRLEIK
binding result [1]: no binding (tested: 2 µg/ml)

B2: 3H4 IgM (murine HLA-E-VL9-specific IgM monoclonal antibody 3H4) (antibody, V domains shown)
VH: EVQLQESGPELVKPGASVKIPCKASGYTFTDYNMDWVKQSHGKSLEWIGDINPNNGGTIYNQKFKGKATLTVDKSSSTAYMELRSLTSEDTAVYYCARPDYYGSSYGWYFDVWGTGTTVTVSS
VL: DIVITQSPSSMYASLGERVTITCKASQDINSYLSWFQQKPGKSPKTLIYRANRLVDGVPSRFSGSGSGQDYSLTISSLEYEDMGIYYCLQYDEFPLTFGAGTKLELK
notes: also called mAb 3H4; IgM 3H4
MFI [2]: 1520
MFI [3]: 1580
MFI [4]: 1180

B3: 3H4 Gv3 (antibody, V domains shown)
VH: EVQLQESGPELVKPGASVKIPCKASGYTFTDYNMDWVKQSHGKSLEWIGDINPNNGGTIYNQKFKGKATLTVDKSSSTAYMELRSLTSEDTAVYYCARPDSAQYSYGWYFDVWGTGTTVTVSS
VL: DIVITQSPSSMYASLGERVTITCKASQDINSYLSWFQQKPGKSPKTLIYRANRLVDGVPSRFSGSGSGQDYSLTISSLEYEDMGIYYCLQYDEFPLTFGAGTKLELK
Kd [5]: 223 nM

B4: 3H4 Gv7 (antibody, V domains shown)
VH: EVQLQESGPELVKPGASVKIPCKASGYTFTDYNMDWVKQSHGKSLEWIGDINPNNGGTIYNQKFKGKATLTVDKSSSTAYMELRSLTSEDTAVYYCARPDGARWSYGWYFDVWGTGTTVTVSS
VL: DIVITQSPSSMYASLGERVTITCKASQDINSYLSWFQQKPGKSPKTLIYRANRLVDGVPSRFSGSGSGQDYSLTISSLEYEDMGIYYCLQYDEFPLTFGAGTKLELK
Kd [6]: 735 nM
koff [6]: 0.0345 s⁻¹
kon [6]: 47000 M⁻¹ s⁻¹
Kd [7]: 994 nM
koff [7]: 0.0349 s⁻¹
kon [7]: 35200 M⁻¹ s⁻¹

B5: 3H4G_v31 (antibody, V domains shown)
VH: EVQLQESGPELVKPGASVKIPCKASGYTFTDYNMDWVKQSHGKSLEWIGDINPNNGGTIYNQKFKGKATLTVDKSSSTAYMELRSLTSEDTAVYYCARPDSAQYRWNWYFDVWGTGTTVTVSS
VL: DIVITQSPSSMYASLGERVTITCKASQDINSYLSWFQQKPGKSPKTLIYRANRLVDGVPSRFSGSGSGQDYSLTISSLEYEDMGIYYCLQYDEFPLTFGAGTKLELK
notes: also called 3H4_Gv31_G1.4A
binding result [8]: binds
Kd [9]: 62.4 nM
koff [9]: 0.0112 s⁻¹
kon [9]: 180000 M⁻¹ s⁻¹
